Biological target: the molecule itself
Experiment: cryo-EM structure; purified flWT-Kv3.1a in LMNG 0.01%, Tris 20 mM pH 7.5, KCl 200 mM, DTT 1 mM; 2 mg/ml on the grid; apo (2.65 Å) and with 500 µM Lu AG00563 (3.0 Å), same organisation of subunits in both

B1: wild type full length human Kv3.1 isoform a tetramer (natural protein, UniProt P48547 1-511, looked up)
chain: MGQGDESERIVINVGGTRHQTYRSTLRTLPGTRLAWLAEPDAHSHFDYDPRADEFFFDRHPGVFAHILNYYRTGKLHCPADVCGPLYEEELAFWGIDETDVEPCCWMTYRQHRDAEEALDSFGGAPLDNSADDADADGPGDSGDGEDELEMTKRLALSDSPDGRPGGFWRRWQPRIWALFEDPYSSRYARYVAFASLFFILVSITTFCLETHERFNPIVNKTEIENVRNGTQVRYYREAETEAFLTYIEGVCVVWFTFEFLMRVIFCPNKVEFIKNSLNIIDFVAILPFYLEVGLSGLSSKAAKDVLGFLRVVRFVRILRIFKLTRHFVGLRVLGHTLRASTNEFLLLIIFLALGVLIFATMIYYAERIGAQPNDPSASEHTHFKNIPIGFWWAVVTMTTLGYGDMYPQTWSGMLVGALCALAGVLTIAMPVPVIVNNFGMYYSLAMAKQKLPKKKKKHIPRPPQLGSPNYCKSVVNSPHHSTQSDTCPLAQEEILEINRAGRKPLRGMSI
notes: Kv3.1 (KCNC1), human, canonical isoform a, wild type, full length; C-terminal prescission 3C site followed by GFP, removed by HRV 3C protease on elution from the resin; The GFP tag was still on the protein when it was captured on the anti-GFP resin (co-purification statement); In the model residues 120-191, 218-239, 268-280, 295-311 and 372-376 were not built; also called flWT-Kv3.1a; Kv3.1a; …
Question: Which “stoichiometry N” value does the source give for B1 here?
Answer: The value was 4.
